The results in this text go back to US20260242478A1 (published 2026).

The target in one test is T1, Anti-PSMA Fab.
T1 construct: In the phage ELISA the PSMA Fab was biotinylated and captured on neutravidin coated plates; also called 006 PSMA Fab
Briefly: phage ELISA; biotinylated PSMA Fab on neutravidin plate, clonal phage supernatant, anti-M13 HRP detection.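 Further: wells preincubated with PSMA antigen in blocking buffer or with blocking buffer only before clonal phage were added for a short incubation, then bound phage detected.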 In general terms: An ELISA detects its analyte on a solid surface through an enzyme-linked reagent.

In test [1] the target is T2, PSMA Fab (006 PSMA Fab) (biotinylated (site not stated)).
T2 construct: also called Anti-PSMA Fab
Briefly: clonal phage ELISA on plate-captured biotinylated PSMA Fab, blocking buffer alone, anti-M13 HRP detection.

Test [2] concerns the target T2, PSMA Fab (006 PSMA Fab). In words: clonal phage ELISA on plate-captured biotinylated PSMA Fab pre-incubated with PSMA antigen as competitor, anti-M13 HRP detection.
Description: (§1) Clonal phage were harvested as crude supernatants and screened via standard ELISAs. […] Prior to the addition of clonal phage. wells were incubated with blocking buffer and PSMA antigen or blocking buffer alone. Without washing or aspirating, clonal phage supernatants were then added to the wells and incubated for a short time. Wells were then washed followed by detection of bound phage using a horse radish conjugated anti-M13 antibody.
The target of test [3] is T3, PSMA Fab (biotinylated (site not stated)).
T3 construct: Biotinylated PSMA Fab captured on neutravidin coated plates in the phage ELISA; also called Anti-PSMA Fab; 006 PSMA Fab
In words: phage ELISA; biotinylated PSMA Fab on neutravidin plate, clonal phage supernatant, anti-M13 HRP detection.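 Further: wells preincubated with PSMA antigen in blocking buffer or with blocking buffer only before clonal phage were added for a short incubation, then bound phage detected.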

For test [4], the target named is T3, PSMA Fab. In words: phage ELISA; biotinylated PSMA Fab on neutravidin plate pre-incubated with PSMA antigen as competitor, anti-M13 HRP detection.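 Further: crude clonal phage supernatants tested, compared against control wells pre-incubated with blocking buffer only, without PSMA antigen.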
Description: as §1
For test [5], the target named is T4, PSMA Fab.
T4 construct: also called Anti-PSMA Fab; 006 PSMA Fab
Briefly: clonal phage ELISA on captured PSMA Fab, wells pre-incubated with PSMA antigen as competitor.
Description: as §1

Test [6] has as its target T4, PSMA Fab. Briefly: clonal phage ELISA on biotinylated PSMA Fab captured on neutravidin plates, anti-M13 HRP detection.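 Further: crude clonal phage supernatants tested, before phage were added, wells were pretreated with PSMA antigen in blocking buffer or with blocking buffer only.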
Description: as §1

Description for Anti-PSMA Fab: as §1

Regarding GSHYCVPQWMCGGF [Phage-3858], in the test with Anti-PSMA Fab, the “Phage binding ELISA signal, Anti-PSMA Fab” value is 1.17.

In the case of MGVECKPLWMCTGL [Phage-3865], the “Phage binding ELISA signal, Anti-PSMA Fab” value in the test with Anti-PSMA Fab was found to be 1.16.

Consider SEMRCSPPWMCYGF [Phage-3841], for which the “Phage binding ELISA signal, Anti-PSMA Fab” value in the test with PSMA Fab (006 PSMA Fab) [1] turned out to be 1.22. The “Phage binding ELISA signal, Anti-PSMA Fab in presence of PSMA” value (“Phage binding ELISA signal … of PSMA” below) in the test with PSMA Fab (006 PSMA Fab) [2] came to 0.0822.

Consider TSVLCQPLWMCSGF [Phage-3832], for which, in the test with PSMA Fab (006 PSMA Fab) [1], the “Phage binding ELISA signal, Anti-PSMA Fab” value came out at 1.24. Moreover, the “Phage binding ELISA signal … of PSMA” value with PSMA Fab (006 PSMA Fab) [2] worked out at 0.0785.

Regarding LYEMCKPLWMCAGF [Phage-3842], the “Phage binding ELISA signal, Anti-PSMA Fab” value with PSMA Fab [3] was found to be 1.22. The “Phage binding ELISA signal … of PSMA” value with PSMA Fab [4] was determined as 0.0737.

On to STMLCSPSWMCFGF (tested as crude phage supernatant) [Phage-3872], for which the “phage binding ELISA signal” value came out at 0.073 with PSMA Fab [5] and 1.15 with PSMA Fab [6].

Regarding AVIMCEPSWMCEGF (tested as crude phage supernatant) [Phage-3870], the “phage binding ELISA signal” value in the test with PSMA Fab [5] came to 0.102; with PSMA Fab [6] it was 1.16.

On to LQQLCVPNWMCVGF (tested as crude phage supernatant) [Phage-3873], for which the “phage binding ELISA signal” value came out at 0.0902 with PSMA Fab [5] and 1.15 in the test with PSMA Fab [6].

Turning to NYNACVPIWMCEGF [Phage-3839], in the test with PSMA Fab (006 PSMA Fab) [1], the “Phage binding ELISA signal, Anti-PSMA Fab” value stood at 1.22. Moreover, the “Phage binding ELISA signal … of PSMA” value with PSMA Fab (006 PSMA Fab) [2] came out at 0.104.

Take PYSICKPDWMCTGL [Phage-3840]: the “Phage binding ELISA signal, Anti-PSMA Fab” value with PSMA Fab (006 PSMA Fab) [1] came out at 1.22. For the same molecule, the “Phage binding ELISA signal … of PSMA” value with PSMA Fab (006 PSMA Fab) [2] was determined as 0.0653.

In the case of EGILCKPSWMCNDF (tested as crude phage supernatant) [Phage-3871], the figures for the “phage binding ELISA signal” value with PSMA Fab [5] and with PSMA Fab [6] were 0.0803 and 1.15, respectively.

As to VSKMCSPVWMCEGF [Phage-3854], the “Phage binding ELISA signal, Anti-PSMA Fab” value with PSMA Fab [3] turned out to be 1.19. The “Phage binding ELISA signal … of PSMA” value in the test with PSMA Fab [4] was found to be 0.0928.

With VVHLCTPNWMCNGF [Phage-3853], the “Phage binding ELISA signal, Anti-PSMA Fab” value with PSMA Fab [3] is 1.19. The “Phage binding ELISA signal … of PSMA” value with PSMA Fab [4] turned out to be 0.0576.

On to SDMVCKPPWMCYGF [Phage-3844], for which, in the test with PSMA Fab [3], the “Phage binding ELISA signal, Anti-PSMA Fab” value turned out to be 1.22. In the test with PSMA Fab [4], the “Phage binding ELISA signal … of PSMA” value was found to be 0.0897.

Regarding SDYMCRPSWMCEGL [Phage-3838], the “Phage binding ELISA signal, Anti-PSMA Fab” value in the test with PSMA Fab (006 PSMA Fab) [1] was 1.23. Besides, the “Phage binding ELISA signal … of PSMA” value with PSMA Fab (006 PSMA Fab) [2] turned out to be 0.0632.

In the case of VDRVCIPTWMCEGI [Phage-3834], the “Phage binding ELISA signal, Anti-PSMA Fab” value with PSMA Fab (006 PSMA Fab) [1] stood at 1.23. Moreover, the “Phage binding ELISA signal … of PSMA” value with PSMA Fab (006 PSMA Fab) [2] turned out to be 0.0575.

With DPVWCIPQWMCEGF [Phage-3837], the “Phage binding ELISA signal, Anti-PSMA Fab” value with PSMA Fab (006 PSMA Fab) [1] was found to be 1.23. Besides, the “Phage binding ELISA signal … of PSMA” value with PSMA Fab (006 PSMA Fab) [2] is 0.0652.

Consider SDHLCIPRWMCVGF [Phage-3857], for which the “Phage binding ELISA signal, Anti-PSMA Fab” value with Anti-PSMA Fab stood at 1.18.

VQIVCSPTWMCTGF [Phage-3861]: the “Phage binding ELISA signal, Anti-PSMA Fab” value with Anti-PSMA Fab was 1.17.

For the molecule LSWECVPQWMCTGL [Phage-3867], the “Phage binding ELISA signal, Anti-PSMA Fab” value with Anti-PSMA Fab turned out to be 1.16.

For the molecule PFLACIPQWMCEVV [Phage-3843], the “Phage binding ELISA signal, Anti-PSMA Fab” value with PSMA Fab [3] was found to be 1.22. Also, the “Phage binding ELISA signal … of PSMA” value in the test with PSMA Fab [4] came out at 0.247.

On to QLGACIPWWMCNGF [Phage-3863], for which, in the test with Anti-PSMA Fab, the “Phage binding ELISA signal, Anti-PSMA Fab” value turned out to be 1.17.

WDIRCSPEWMCIGL [Phage-3849]: the “Phage binding ELISA signal, Anti-PSMA Fab” value with PSMA Fab [3] amounted to 1.21. For the same molecule, in the test with PSMA Fab [4], the “Phage binding ELISA signal … of PSMA” value amounted to 0.0603.

Turning to VLHKCLPTWMCNGF [Phage-3836], in the test with PSMA Fab (006 PSMA Fab) [1], the “Phage binding ELISA signal, Anti-PSMA Fab” value was found to be 1.23. Further, the “Phage binding ELISA signal … of PSMA” value in the test with PSMA Fab (006 PSMA Fab) [2] worked out at 0.0967.

For SGLSCVPFWMCTGF [Phage-3845], the “Phage binding ELISA signal, Anti-PSMA Fab” value with PSMA Fab [3] turned out to be 1.21. Further, the “Phage binding ELISA signal … of PSMA” value in the test with PSMA Fab [4] stood at 0.0662.

On to YNQLCIPNWMCTGF [Phage-3846], for which the “Phage binding ELISA signal, Anti-PSMA Fab” value in the test with PSMA Fab [3] worked out at 1.21. Moreover, the “Phage binding ELISA signal … of PSMA” value in the test with PSMA Fab [4] stood at 0.0729.

On to NYVKCRPAWMCDGF [Phage-3855], for which, in the test with PSMA Fab [3], the “Phage binding ELISA signal, Anti-PSMA Fab” value was determined as 1.18. The “Phage binding ELISA signal … of PSMA” value with PSMA Fab [4] came out at 0.0759.

Turning to FWQRCVPTWMCEGF [Phage-3835], the “Phage binding ELISA signal, Anti-PSMA Fab” value with PSMA Fab (006 PSMA Fab) [1] was determined as 1.23. Moreover, the “Phage binding ELISA signal … of PSMA” value with PSMA Fab (006 PSMA Fab) [2] came out at 0.148.

As for SNVMCRPSWMCAGF (tested as crude phage supernatant) [Phage-3876], the “phage binding ELISA signal” value came out at 0.132 with PSMA Fab [5] and 1.14 with PSMA Fab [6].

With YELACVPRWMCYGL [Phage-3856], in the test with Anti-PSMA Fab, the “Phage binding ELISA signal, Anti-PSMA Fab” value was determined as 1.18.

WQAWCEPPWMCLGF [Phage-3851]: in the test with PSMA Fab [3], the “Phage binding ELISA signal, Anti-PSMA Fab” value was found to be 1.2. Besides, the “Phage binding ELISA signal … of PSMA” value in the test with PSMA Fab [4] was 0.0962.

Take ELRLCVPHWMCDGF [Phage-3847]: the “Phage binding ELISA signal, Anti-PSMA Fab” value with PSMA Fab [3] is 1.21. Also, the “Phage binding ELISA signal … of PSMA” value with PSMA Fab [4] was 0.0777.

For DQRMCEPSWMCLGL [Phage-3852], the “Phage binding ELISA signal, Anti-PSMA Fab” value in the test with PSMA Fab [3] is 1.19. The “Phage binding ELISA signal … of PSMA” value with PSMA Fab [4] is 0.0704.

For the molecule EPKECVPPWMCIGM [Phage-3850], the “Phage binding ELISA signal, Anti-PSMA Fab” value in the test with PSMA Fab [3] worked out at 1.21. The “Phage binding ELISA signal … of PSMA” value with PSMA Fab [4] was determined as 0.079.

In the case of PYTLCRPAWMCQAM [Phage-3868], the “Phage binding ELISA signal, Anti-PSMA Fab” value with Anti-PSMA Fab is 1.16.

Regarding PQIKCIPAWMCDGF (tested as crude phage supernatant) [Phage-3875], the “phage binding ELISA signal” value stood at 0.0851 in the test with PSMA Fab [5] and 1.14 in the test with PSMA Fab [6].

Turning to IESICRPAWMCERL [Phage-3860], in the test with Anti-PSMA Fab, the “Phage binding ELISA signal, Anti-PSMA Fab” value turned out to be 1.17.

As to VGIRCEPAWMCEGF [Phage-3833], the “Phage binding ELISA signal, Anti-PSMA Fab” value with PSMA Fab (006 PSMA Fab) [1] worked out at 1.24. Also, in the test with PSMA Fab (006 PSMA Fab) [2], the “Phage binding ELISA signal … of PSMA” value was found to be 0.0645.

Take VPRLCMPPWMCVGF [Phage-3848]: the “Phage binding ELISA signal, Anti-PSMA Fab” value in the test with PSMA Fab [3] is 1.21. Moreover, the “Phage binding ELISA signal … of PSMA” value in the test with PSMA Fab [4] was 0.0968.

On to EHARCTPAWMCAGF [Phage-3859], for which the “Phage binding ELISA signal, Anti-PSMA Fab” value in the test with Anti-PSMA Fab amounted to 1.17.

NAGYCVPTWMCDGF [Phage-3864]: the “Phage binding ELISA signal, Anti-PSMA Fab” value with Anti-PSMA Fab was determined as 1.17.

For the molecule PSQMCVPTWMCVGF [Phage-3862], the “Phage binding ELISA signal, Anti-PSMA Fab” value with Anti-PSMA Fab turned out to be 1.17.

Consider GQGSCVPMWMCEGF [Phage-3866], for which, in the test with Anti-PSMA Fab, the “Phage binding ELISA signal, Anti-PSMA Fab” value was determined as 1.16.

On to LEIFCVPMWMCEGL [Phage-3869], for which, in the test with Anti-PSMA Fab, the “Phage binding ELISA signal, Anti-PSMA Fab” value was 1.16.

Consider YDRLCSPPWMCSGF (tested as crude phage supernatant) [Phage-3874], for which the “phage binding ELISA signal” value is 0.0629 with PSMA Fab [5] and 1.15 with PSMA Fab [6].
